Results from patent CN115819568A.

Target: EV A71病毒样颗粒(VLP) (Enterovirus A71)
Test: sandwich ELISA: rabbit anti-EV A71 VLP serum as capture, VLP titrated, antibody 1.2 ng/ul as detector, positive at OD450>0.15

B1: 肠道病毒A71单克隆抗体 1G10 (antibody, V domains shown)
VH: EVKLVESGGGLVKPGGSLKLSCAASGFTFSSYVMSWVRQTPEKRLEWVASISNGGSTFYPDSVKGRLTISRDNARNILYLQMSSLRSEDTAMYYCARAYGNDWYFDVWGAGTTVTVSS
VL: DIQMTQTTSSLSASLGDRVTISCRASQDISNYLNWYQQKPDGTVKLLIYYTSRLNSGVPSRFSGSGSGTDYSLTISNLEEEDIATYFCQQGNTAWTFGGGTKLEIKR
For B1, the 最低检出限度 was 3.12 ng/mL.
